Numbered stars: 1 amine (or outer) side, 2 acyl side, 3 side chain; on linkers, the order of the positions; unused ones are H or OH. Bridge positions count the residues as written; N and C are the ends. Side chains are listed from the residue outwards. Ends that are not written are not given here. * marks the point of attachment. C20 diacid = O=C(O)CCCCCCCCCCCCCCCCCCC(=O)*; γGlu = O=C(O)[C@H](CCC(=O)[*:2])N[*:1]; AEEA = NCCOCCOCC(=O)O
T1: human calcitonin receptor (human, UniProt P30988 25-474)
T1 construct: whole, on cells; Used as cell membranes; also called hCTR; hCT
T1 sequence (looked up): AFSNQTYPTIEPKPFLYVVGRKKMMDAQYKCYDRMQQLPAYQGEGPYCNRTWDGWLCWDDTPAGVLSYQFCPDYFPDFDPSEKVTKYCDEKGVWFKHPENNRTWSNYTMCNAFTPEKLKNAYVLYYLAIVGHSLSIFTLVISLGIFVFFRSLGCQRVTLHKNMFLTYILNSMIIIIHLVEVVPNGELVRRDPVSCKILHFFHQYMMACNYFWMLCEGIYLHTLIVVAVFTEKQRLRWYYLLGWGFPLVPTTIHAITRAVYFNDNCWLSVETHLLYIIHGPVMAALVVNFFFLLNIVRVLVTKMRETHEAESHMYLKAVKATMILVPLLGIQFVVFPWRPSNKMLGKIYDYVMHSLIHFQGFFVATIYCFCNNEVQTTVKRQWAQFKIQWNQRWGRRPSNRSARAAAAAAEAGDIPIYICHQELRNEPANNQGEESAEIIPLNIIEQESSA

B1: N^ε1-[2-[2-[2-[[2-[2-[2-[[(4S)-4-carboxy-4-(19-carboxynonadecanoylamino)butanoyl]amino]ethoxy]ethoxy]acetyl]amino]ethoxy]ethoxy]acetyl]-[Arg17,Pro21,Pro27,Pro31 … (peptide)
peptide: K([AEEA-AEEA-γGlu-C20 diacid])CNTATCATQRLANFLRHSSPNFGAIPSSTPVGSNTY-NH2
modifications: disulfide 2-7; N-terminus assumed
SMILES: CC[C@H](C)[C@H](NC(=O)[C@H](C)NC(=O)CNC(=O)[C@H](Cc1ccccc1)NC(=O)[C@H](CC(N)=O)NC(=O)[C@@H]1CCCN1C(=O)[C@H](CO)NC(=O)[C@H](CO)NC(=O)[C@H](Cc1c[nH]cn1)NC(=O)[C@H](CCCNC(=N)N)NC(=O)[C@H](CC(C)C)NC(=O)[C@H](Cc1ccccc1)NC(=O)[C@H](CC(N)=O)NC(=O)[C@H](C)NC(=O)[C@H](CC(C)C)NC(=O)[C@H](CCCNC(=N)N)NC(=O)[C@H](CCC(N)=O)NC(=O)[C@@H](NC(=O)[C@H](C)NC(=O)[C@@H]1CSSC[C@H](NC(=O)[C@@H](N)CCCCNC(=O)COCCOCCNC(=O)COCCOCCNC(=O)CC[C@H](NC(=O)CCCCCCCCCCCCCCCCCCC(=O)O)C(=O)O)C(=O)N[C@@H](CC(N)=O)C(=O)N[C@@H]([C@@H](C)O)C(=O)N[C@@H](C)C(=O)N[C@@H]([C@@H](C)O)C(=O)N1)[C@@H](C)O)C(=O)N1CCC[C@H]1C(=O)N[C@@H](CO)C(=O)N[C@@H](CO)C(=O)N[C@H](C(=O)N1CCC[C@H]1C(=O)N[C@H](C(=O)NCC(=O)N[C@@H](CO)C(=O)N[C@@H](CC(N)=O)C(=O)N[C@H](C(=O)N[C@@H](Cc1ccc(O)cc1)C(N)=O)[C@@H](C)O)C(C)C)[C@@H](C)O
notes: also called compound 96
B2: N^ε1-[2-[2-[2-[[(4S)-4-carboxy-4-(19-carboxynonadecanoylamino)butanoyl]amino]ethoxy]ethoxy]acetyl]-[Arg14,Arg17,Pro21,Pro27,Pro31]-h-amylin (peptide)
peptide: K([AEEA-γGlu-C20 diacid])CNTATCATQRLARFLRHSSPNFGAIPSSTPVGSNTY-NH2
modifications: disulfide 2-7; N-terminus assumed
SMILES: CC[C@H](C)[C@H](NC(=O)[C@H](C)NC(=O)CNC(=O)[C@H](Cc1ccccc1)NC(=O)[C@H](CC(N)=O)NC(=O)[C@@H]1CCCN1C(=O)[C@H](CO)NC(=O)[C@H](CO)NC(=O)[C@H](Cc1c[nH]cn1)NC(=O)[C@H](CCCNC(=N)N)NC(=O)[C@H](CC(C)C)NC(=O)[C@H](Cc1ccccc1)NC(=O)[C@H](CCCNC(=N)N)NC(=O)[C@H](C)NC(=O)[C@H](CC(C)C)NC(=O)[C@H](CCCNC(=N)N)NC(=O)[C@H](CCC(N)=O)NC(=O)[C@@H](NC(=O)[C@H](C)NC(=O)[C@@H]1CSSC[C@H](NC(=O)[C@@H](N)CCCCNC(=O)COCCOCCNC(=O)CC[C@H](NC(=O)CCCCCCCCCCCCCCCCCCC(=O)O)C(=O)O)C(=O)N[C@@H](CC(N)=O)C(=O)N[C@@H]([C@@H](C)O)C(=O)N[C@@H](C)C(=O)N[C@@H]([C@@H](C)O)C(=O)N1)[C@@H](C)O)C(=O)N1CCC[C@H]1C(=O)N[C@@H](CO)C(=O)N[C@@H](CO)C(=O)N[C@H](C(=O)N1CCC[C@H]1C(=O)N[C@H](C(=O)NCC(=O)N[C@@H](CO)C(=O)N[C@@H](CC(N)=O)C(=O)N[C@H](C(=O)N[C@@H](Cc1ccc(O)cc1)C(N)=O)[C@@H](C)O)C(C)C)[C@@H](C)O
notes: also called compound 64
B3: N^ε1-[2-[2-[2-[[2-[2-[2-[[(4S)-4-carboxy-4-(19-carboxynonadecanoylamino)butanoyl]amino]ethoxy]ethoxy]acetyl]amino]ethoxy]ethoxy]acetyl]-[Arg17,Pro21,Pro27,Pro34 … (peptide)
peptide: K([AEEA-AEEA-γGlu-C20 diacid])CNTATCATQRLANFLRHSSPNFGAIPSSTNVGPNTY-NH2
modifications: disulfide 2-7; N-terminus assumed
SMILES: CC[C@H](C)[C@H](NC(=O)[C@H](C)NC(=O)CNC(=O)[C@H](Cc1ccccc1)NC(=O)[C@H](CC(N)=O)NC(=O)[C@@H]1CCCN1C(=O)[C@H](CO)NC(=O)[C@H](CO)NC(=O)[C@H](Cc1c[nH]cn1)NC(=O)[C@H](CCCNC(=N)N)NC(=O)[C@H](CC(C)C)NC(=O)[C@H](Cc1ccccc1)NC(=O)[C@H](CC(N)=O)NC(=O)[C@H](C)NC(=O)[C@H](CC(C)C)NC(=O)[C@H](CCCNC(=N)N)NC(=O)[C@H](CCC(N)=O)NC(=O)[C@@H](NC(=O)[C@H](C)NC(=O)[C@@H]1CSSC[C@H](NC(=O)[C@@H](N)CCCCNC(=O)COCCOCCNC(=O)COCCOCCNC(=O)CC[C@H](NC(=O)CCCCCCCCCCCCCCCCCCC(=O)O)C(=O)O)C(=O)N[C@@H](CC(N)=O)C(=O)N[C@@H]([C@@H](C)O)C(=O)N[C@@H](C)C(=O)N[C@@H]([C@@H](C)O)C(=O)N1)[C@@H](C)O)C(=O)N1CCC[C@H]1C(=O)N[C@@H](CO)C(=O)N[C@@H](CO)C(=O)N[C@H](C(=O)N[C@@H](CC(N)=O)C(=O)N[C@H](C(=O)NCC(=O)N1CCC[C@H]1C(=O)N[C@@H](CC(N)=O)C(=O)N[C@H](C(=O)N[C@@H](Cc1ccc(O)cc1)C(N)=O)[C@@H](C)O)C(C)C)[C@@H](C)O
notes: also called compound 98
B4: N^ε1-[2-[2-[2-[[(4S)-4-carboxy-4-(19-carboxynonadecanoylamino)butanoyl]amino]ethoxy]ethoxy]acetyl]-[Ala14,Arg17,Pro21,Pro27,Pro31]-h-amylin (peptide)
peptide: K([AEEA-γGlu-C20 diacid])CNTATCATQRLAAFLRHSSPNFGAIPSSTPVGSNTY-NH2
modifications: disulfide 2-7; N-terminus assumed
SMILES: CC[C@H](C)[C@H](NC(=O)[C@H](C)NC(=O)CNC(=O)[C@H](Cc1ccccc1)NC(=O)[C@H](CC(N)=O)NC(=O)[C@@H]1CCCN1C(=O)[C@H](CO)NC(=O)[C@H](CO)NC(=O)[C@H](Cc1c[nH]cn1)NC(=O)[C@H](CCCNC(=N)N)NC(=O)[C@H](CC(C)C)NC(=O)[C@H](Cc1ccccc1)NC(=O)[C@H](C)NC(=O)[C@H](C)NC(=O)[C@H](CC(C)C)NC(=O)[C@H](CCCNC(=N)N)NC(=O)[C@H](CCC(N)=O)NC(=O)[C@@H](NC(=O)[C@H](C)NC(=O)[C@@H]1CSSC[C@H](NC(=O)[C@@H](N)CCCCNC(=O)COCCOCCNC(=O)CC[C@H](NC(=O)CCCCCCCCCCCCCCCCCCC(=O)O)C(=O)O)C(=O)N[C@@H](CC(N)=O)C(=O)N[C@@H]([C@@H](C)O)C(=O)N[C@@H](C)C(=O)N[C@@H]([C@@H](C)O)C(=O)N1)[C@@H](C)O)C(=O)N1CCC[C@H]1C(=O)N[C@@H](CO)C(=O)N[C@@H](CO)C(=O)N[C@H](C(=O)N1CCC[C@H]1C(=O)N[C@H](C(=O)NCC(=O)N[C@@H](CO)C(=O)N[C@@H](CC(N)=O)C(=O)N[C@H](C(=O)N[C@@H](Cc1ccc(O)cc1)C(N)=O)[C@@H](C)O)C(C)C)[C@@H](C)O
notes: also called compound 72

What follows are binders tested against T1, human calcitonin receptor (assay: ratio of hCTR IC50 to hAmylin-R IC50 (reference: human amylin receptor)).
Description: The resulting pellet was resuspended, homogenized and centrifuged (20.000 rpm, 15 min) in a buffer containing 20 mM Na-HEPES and 0.1 mM EDTA (pH 7.4, buffer 2). The resulting pellet was resuspended in buffer 2 and protein concentration was measured (BCA protein Assay, Pierce). The homogenate was kept cold during the whole procedure. The membranes were kept at −80° C. until use. The assay was performed in a 384 well Optiplate (PerkinElmer) in a total volume of 40 ul. Membranes were mixed with SPA beads. Final concentration of membranes 35 ng/μL final and SPA beads was 0.05 mg/well. Test-compounds were dissolved in DMSO and further diluted in assay buffer (50 mM Hepes, pH 7.4, 1 mM CaCl2, 5 mM MgCl₂, 0.1% OA and 0.02% Tween20). […] The final mixture was incubated with shaking at 400 rpm for 120 min at 25° C. prior to centrifugation (1500 rpm, 10 min). Samples were analyzed on TopCounter™ (Packard). The IC₅₀ was calculated using (one site binding competition analysis) GraphPad Prism5 as a measure of receptor affinity.
Membranes were prepared in the following way; the cells were rinsed with PBS and incubated with Versene for approximately 5 min before harvesting. The cells were flushed with PBS and the cell-suspension was centrifuged for 5 min at 1000 rpm. Cells were homogenized (Ultrathurrax) in a buffer containing 20 mM Na-HEPES and 10 mM EDTA (pH 7.4) and centrifuged at 20.000 rpm for 15 min. The resulting pellet was resuspended, homogenized and centrifuged (20.000 rpm, 15 min) in a buffer containing 20 mM Na-HEPES and 0.1 mM EDTA (pH 7.4, buffer 2). The resulting pellet was resuspended in buffer 2 and protein concentration was measured (BCA protein Assay, Pierce). The homogenate was kept cold during the whole procedure. The membranes were kept at −80° C. until use. Assay was performed in a 384 well Optiplate (PerkinElmer) in a total volume of 40 ul. Membranes were mixed with SPA beads.
B1 was tested, and the “Ratio hCT/hAmylin binding” value was 79.6. With B2 the “Ratio hCT/hAmylin binding” value was 126. B3 was tested, and the “Ratio hCT/hAmylin binding” value was 74.1. For B4, the “Ratio hCT/hAmylin binding” value was 247.

These binders were tested against T1, human calcitonin receptor (assay: SPA competition on BHK cell membranes, 125I-calcitonin as radioligand (Assay VII)).
Description: Membranes were prepared in the following way; the cells were rinsed with PBS and incubated with Versene for approximately 5 min before harvesting. The cells were flushed with PBS and the cell-suspension was centrifuged for 5 min at 1000 rpm. Cells were homogenized (Ultrathurrax) in a buffer containing 20 mM Na-HEPES and 10 mM EDTA (pH 7.4) and centrifuged at 20.000 rpm for 15 min. The resulting pellet was resuspended, homogenized and centrifuged (20.000 rpm, 15 min) in a buffer containing 20 mM Na-HEPES and 0.1 mM EDTA (pH 7.4, buffer 2). The resulting pellet was resuspended in buffer 2 and protein concentration was measured (BCA protein Assay, Pierce). The homogenate was kept cold during the whole procedure. The membranes were kept at −80° C. until use. Assay was performed in a 384 well Optiplate (PerkinElmer) in a total volume of 40 ul. Membranes were mixed with SPA beads. Final concentration of membranes 35 ng/μL final and Final concentration of SPA beads was 0.05 mg/well. Test-compounds were dissolved in DMSO and further diluted in assay buffer (50 mM Hepes, pH 7.4, 1 mM CaCl2, 5 mM MgCl₂, 0.1% OA and 0.02% Tween20). […] The final mixture was incubated for 120 min with shaking at 400 rpm at 25° C. prior to centrifugation (1500 rpm, 10 min). Samples were analyzed on TopCounter™ (Packard). The […] was calculated using (one site binding competition analysis) GraphPad Prism5 as a measure of receptor affinity.
An IC50 of 13.2 nM was found for B1 in this work. An IC50 of 56 nM was found for B2 in this work. An IC50 of 6.74 nM was found for B3 in this work. An IC50 of 42.4 nM was found for B4 in this work.

— patent publication US20140087995A1 (published 2014)
